In US20250242062A1 (VANDERBILT UNIVERSITY, published 2025):

Experiments:
[1] = target: T1, murine COX-2 (mCOX-2) enzyme (murine, UniProt Q05769 18-604); test: microscale thermophoresis (MST), apo mCOX-2; apo mCOX-2 as target
T1 construct: also called apo mCOX-2; mouse COX-2
T1 sequence (looked up): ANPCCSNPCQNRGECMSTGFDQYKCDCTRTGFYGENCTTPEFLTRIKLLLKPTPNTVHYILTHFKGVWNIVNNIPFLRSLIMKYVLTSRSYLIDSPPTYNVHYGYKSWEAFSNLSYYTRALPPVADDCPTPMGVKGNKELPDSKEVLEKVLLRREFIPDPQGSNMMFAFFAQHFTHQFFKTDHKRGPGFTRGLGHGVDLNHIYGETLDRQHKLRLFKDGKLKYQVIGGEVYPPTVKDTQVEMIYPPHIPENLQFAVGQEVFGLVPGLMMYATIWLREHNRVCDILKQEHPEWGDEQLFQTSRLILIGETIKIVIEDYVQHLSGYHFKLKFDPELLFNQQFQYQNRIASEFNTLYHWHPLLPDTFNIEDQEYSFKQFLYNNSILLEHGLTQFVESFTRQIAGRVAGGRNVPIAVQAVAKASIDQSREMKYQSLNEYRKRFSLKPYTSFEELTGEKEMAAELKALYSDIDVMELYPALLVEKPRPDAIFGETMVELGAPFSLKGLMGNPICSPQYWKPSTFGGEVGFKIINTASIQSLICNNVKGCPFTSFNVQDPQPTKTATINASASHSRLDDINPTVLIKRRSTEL
Procedure: The dissociation constant of A7 and F9 nanobodies while bound to apo mCOX-2 was evaluated by a microscale thermophoresis (MST) assay (Bartoschik, T, et al. Sci Rep 2018 8:4977). […] Further, the COX-2 inhibitory activity of A7 and F9 nanobodies was evaluated in the production of prostaglandin E2 (PGE2) and prostaglandin D2 (PGD2) using arachidonic acid (AA) as a substrate. In this assay, purified mouse COX-2 expressed in baculovirus-infected Sf9 cells was used. Purified COX-2 was incubated with varying concentrations of test nanobodies followed by the addition of hematin and AA, respectively. The PGE2 and PGD2 products in the reaction was quantified by a tandem liquid chromatography mass spectroscopy (LC-MS/MS) analysis.

[2] = target: T1, murine COX-2 (mCOX-2) enzyme; test: cell-based or functional assay

Kd [1]: 2.4 nM
IC50, inhibition of PGE2 and PGD2 production from arachidonic acid by purified mouse COX-2 (LC-MS/MS) [2]: 6.8 nM
B1: A7 nanobody (VHH)
VHH: QVQLQESGGGLVQPGGSLKLSCAASGSIFSINVMGWYRQAPGKQRELVATITSGGTTNYADSVKGRFTISRDNAKDTLYLQMNSLKPEDTAVYYCNAKDLGGSSWFSEFDYWGQGTQVTVGP
notes: Alpaca-derived VHH expressed in E. coli and purified by SEC; The stated molecular weight is 15.24 kDa; also called native A7 nanobody clone
